# Measurements reported in US20240270821A1, “GIP/GLP1/GCG TRI-RECEPTOR AGONISTS AND USES THEREOF” (priority 2023, published 2024).
# T1: human GIP receptor (human) (UniProt P48546)
# T1 sequence (looked up): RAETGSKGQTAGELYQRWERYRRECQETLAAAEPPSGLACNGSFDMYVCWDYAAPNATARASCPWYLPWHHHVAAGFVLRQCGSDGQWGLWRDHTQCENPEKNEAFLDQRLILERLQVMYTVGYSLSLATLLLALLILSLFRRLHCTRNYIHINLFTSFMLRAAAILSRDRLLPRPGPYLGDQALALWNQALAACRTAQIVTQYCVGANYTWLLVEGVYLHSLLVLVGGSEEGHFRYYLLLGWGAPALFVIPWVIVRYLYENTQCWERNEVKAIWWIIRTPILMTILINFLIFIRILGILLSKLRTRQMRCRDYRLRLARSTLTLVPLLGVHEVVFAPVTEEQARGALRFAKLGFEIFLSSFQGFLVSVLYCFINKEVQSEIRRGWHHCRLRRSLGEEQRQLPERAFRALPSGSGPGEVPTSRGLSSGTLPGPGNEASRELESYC
# Legend:
# Assay in all cases: cell-based or functional assay
# [1] = molecular target: hGLP-1R (Homo sapiens, UniProt P43220)
# hGLP-1R, sequence (P43220 24-463): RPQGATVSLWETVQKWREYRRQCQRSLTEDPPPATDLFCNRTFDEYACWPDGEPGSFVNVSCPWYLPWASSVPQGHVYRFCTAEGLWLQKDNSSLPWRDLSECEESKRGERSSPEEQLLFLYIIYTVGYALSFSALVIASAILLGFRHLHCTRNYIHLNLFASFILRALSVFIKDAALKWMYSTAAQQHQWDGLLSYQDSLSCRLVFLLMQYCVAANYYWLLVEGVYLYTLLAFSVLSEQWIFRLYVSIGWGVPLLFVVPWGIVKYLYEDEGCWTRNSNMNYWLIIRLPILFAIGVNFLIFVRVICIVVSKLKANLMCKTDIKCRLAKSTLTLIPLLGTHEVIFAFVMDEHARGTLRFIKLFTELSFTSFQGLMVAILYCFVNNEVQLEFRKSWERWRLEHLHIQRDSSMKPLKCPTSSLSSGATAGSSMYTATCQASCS
# [2] = molecular target: T1, human GIP receptor (human)
# [3] = molecular target: human glucagon receptor (human) (UniProt P47871)
# human glucagon receptor (human), sequence (P47871 26-477): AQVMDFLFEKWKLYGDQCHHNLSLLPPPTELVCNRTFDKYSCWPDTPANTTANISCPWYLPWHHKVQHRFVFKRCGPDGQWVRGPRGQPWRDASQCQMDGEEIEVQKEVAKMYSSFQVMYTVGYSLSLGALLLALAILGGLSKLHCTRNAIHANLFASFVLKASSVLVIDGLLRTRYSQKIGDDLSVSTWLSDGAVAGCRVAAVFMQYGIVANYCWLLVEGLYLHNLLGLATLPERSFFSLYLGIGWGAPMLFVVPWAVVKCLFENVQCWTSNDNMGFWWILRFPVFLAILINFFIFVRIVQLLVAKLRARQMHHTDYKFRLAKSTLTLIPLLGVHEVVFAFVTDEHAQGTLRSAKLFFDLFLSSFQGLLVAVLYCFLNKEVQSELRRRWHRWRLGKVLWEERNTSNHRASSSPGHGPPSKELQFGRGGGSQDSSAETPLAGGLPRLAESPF
Binder,Relative cAMP EC50 [1],"cAMP Rel EC50, nM (in the presence of 1% HSA) [1]",Relative cAMP EC50 [2],"cAMP Rel EC50, nM (in the presence of 1% HSA) [2]",Relative cAMP EC50 [3],"cAMP Rel EC50, nM (in the presence of 1% HSA) [3]",cAMP Rel EC50 (1% HSA) [1],cAMP Rel EC50 (1% HSA) [2],cAMP Rel EC50 (1% HSA) [3]
YXQGTFTSDFSXXLDKKAQXAFIEWLLAGGPSSGEPPPSGE (synthetic construct; SITE 2: note = 2-Aminoisobutyric Acid; SITE 12: note = L-ornithine; SITE 13: note = alpha-methyl-leucine; SITE 17: note = Lysine is chemically modified through conjugation of the epsilon-amino group of the Lysine side chain with (2-[2-(2-Amino-ethoxy)-ethoxy]-acetyl)-(gamma-Glu)) [Example 103],3.27 nM,482 nM,0.2 nM,35.1 nM,10.5 nM,2590 nM,–,–,–
YXQGTFTSDXSQXLDKKAQXAFIEYLIAGGPSSGAPPPSGE (non-natural residues; lipidated Lys; C-terminal amide; synthetic construct; SITE 2: note = 2-Aminoisobutyric Acid; SITE 10: note = 3-(4-Pyridyl)-L-alanine; SITE 13: note = alpha-methyl-leucine; SITE 17: note = Lysine is chemically modified through conjugation of the epsilon-amino group of the Lysine side chain with D-Glutamic acid-(gamma-Glu)-CO-(CH2)16) [Example 1085],1.28 nM,–,0.0827 nM,–,11.6 nM,–,188 nM,9.84 nM,1370 nM
YXQGTFTSDFSXXLDKKAQXAFIEWLLEGGXSSGAPPPSGE (synthetic construct; SITE 2: note = 2-Aminoisobutyric Acid; SITE 12: note = L-ornithine; SITE 13: note = alpha-methyl-leucine; SITE 17: note = Lysine is chemically modified through conjugation of the epsilon-amino group of the Lysine side chain with (2-[2-(2-Amino-ethoxy)-ethoxy]-acetyl)-(gamma-Glu)) [Example 104],3.39 nM,698 nM,0.251 nM,97.5 nM,7.58 nM,1260 nM,–,–,–
"YXQGTFTSDXSQXLDKKAQXAFIEYLIAGGPSSGAPPPSGE (Aib, 4Pal, αMeL, Me4Pal; acylated K; C-terminal amide; synthetic construct; SITE 2: note = 2-Aminoisobutyric Acid; SITE 10: note = 3-(4-Pyridyl)-L-alanine; SITE 13: note = alpha-methyl-leucine; SITE 17: note = Lysine is chemically modified through conjugation of the epsilon-amino group of the Lysine side chain with (Glu)-(gamma-Glu)-CO-(CH2)16-CO2H; SIT) [Example 1086]",1.23 nM,–,0.117 nM,–,12 nM,–,496 nM,21.2 nM,3140 nM
"YXQGTFTSDXSQXLDKKAQXAFIEYLIAGGPSSGAPPPSGE (Aib, 4Pal, αMeL, Me4Pal; acylated lysine; amide; synthetic construct; SITE 2: note = 2-Aminoisobutyric Acid; SITE 10: note = 3-(4-Pyridyl)-L-alanine; SITE 13: note = alpha-methyl-leucine; SITE 17: note = Lysine is chemically modified through conjugation of the epsilon-amino group of the Lysine side chain with (Glu)2-(gamma-Glu)-CO-(CH2)16-CO2H; SI) [Example 1087]",2.63 nM,–,0.207 nM,–,15.4 nM,–,439 nM,23.3 nM,2460 nM
"YXQGTFTSDXSQXLDXKAQXAFIQXLIEGGPSSGAPPPSGSEEE (Aib, 4Pal, αMeL, Orn, Me4Pal, αMeY; γGlu-C18 diacid Lys; amide; synthetic construct; SITE 2: note = 2-Aminoisobutyric Acid; SITE 10: note = 3-(4-Pyridyl)-L-alanine; SITE 13: note = alpha-methyl-leucine; SITE 16: note = L-ornithine; SITE 17: note = Lysine is chemically modified through conjugation of the epsilon-amino group of the Lysine side chain with D-Glutami) [Example 1076]",1.47 nM,–,0.174 nM,–,59 nM,–,187 nM,20.2 nM,1650 nM
YXQGTFTSDXSQXLDXKAQXQFIEXLLAGGPSSGAPPPSGSEEE (Lys acylated γGlu-C18 diacid; non-natural residues; C-terminal amide; synthetic construct; SITE 2: note = 2-Aminoisobutyric Acid; SITE 10: note = 3-(4-Pyridyl)-L-alanine; SITE 13: note = alpha-methyl-leucine; SITE 16: note = L-ornithine; SITE 17: note = Lysine is chemically modified through conjugation of the epsilon-amino group of the Lysine side chain with D-Glutami) [Example 1084],10.3 nM,–,0.0975 nM,–,11.5 nM,–,761 nM,17.2 nM,1390 nM
"YXQGTFTSDXSQXLDXKAQXQFIEXLIAGGPSSGAPPPSGSEEE (Aib, 4Pal, Orn, Me4Pal, alpha-methyl-Tyr, lipidated Lys, amide; synthetic construct; SITE 2: note = 2-Aminoisobutyric Acid; SITE 10: note = 3-(4-Pyridyl)-L-alanine; SITE 13: note = alpha-methyl-leucine; SITE 16: note = L-ornithine; SITE 17: note = Lysine is chemically modified through conjugation of the epsilon-amino group of the Lysine side chain with D-Glutami) [Example 1081]",1.29 nM,–,0.105 nM,–,19.7 nM,–,151 nM,8.44 nM,2130 nM
"YXQGTFTSDXSQXLDXKAQXAFIQXLLEGGPSSGAPPPSGSEEE (Aib, 4Pal, Orn, Me4Pal, αMeY; acylated lysine; amide; synthetic construct; SITE 2: note = 2-Aminoisobutyric Acid; SITE 10: note = 3-(4-Pyridyl)-L-alanine; SITE 13: note = alpha-methyl-leucine; SITE 16: note = L-ornithine; SITE 17: note = Lysine is chemically modified through conjugation of the epsilon-amino group of the Lysine side chain with D-Glutami) [Example 1083]",7.76 nM,–,0.328 nM,–,15 nM,–,547 nM,20.5 nM,1030 nM
YXQGTFTSDXSQXLDXKAQXAFIQXLIEGGPSSGAPPPSGSEEE (Glu-γGlu-C18 diacid on Lys; non-natural residues; amide; synthetic construct; SITE 2: note = 2-Aminoisobutyric Acid; SITE 10: note = 3-(4-Pyridyl)-L-alanine; SITE 13: note = alpha-methyl-leucine; SITE 16: note = L-ornithine; SITE 17: note = Lysine is chemically modified through conjugation of the epsilon-amino group of the Lysine side chain with (Glu)-(ga)) [Example 1077],1.48 nM,–,0.23 nM,–,18.8 nM,–,408 nM,27.8 nM,3160 nM
YXQGTFTSDXSQXLDXKAQXAFIEXLLAGGPSSGAPPPSGSEEE (Lys acylated γGlu-C18 diacid; non-natural residues; C-amide; synthetic construct; SITE 2: note = 2-Aminoisobutyric Acid; SITE 10: note = 3-(4-Pyridyl)-L-alanine; SITE 13: note = alpha-methyl-leucine; SITE 16: note = L-ornithine; SITE 17: note = Lysine is chemically modified through conjugation of the epsilon-amino group of the Lysine side chain with D-Glutami) [Example 1082],4.13 nM,–,0.099 nM,–,12.3 nM,–,677 nM,12.3 nM,1530 nM
"YXQGTFTSDXSQXLDKKAQXAFIEYLIAGGPSSGAPPPSGEEE (Aib, 4Pal, αMeL, Me4Pal, acylated K, C-terminal amide; synthetic construct; SITE 2: note = 2-Aminoisobutyric Acid; SITE 10: note = 3-(4-Pyridyl)-L-alanine; SITE 13: note = alpha-methyl-leucine; SITE 17: note = Lysine is chemically modified through conjugation of the epsilon-amino group of the Lysine side chain with D-Glutamic acid-(gamma-Glu)-CO-(CH2)16) [Example 1088]",2.99 nM,–,0.182 nM,–,14.8 nM,–,367 nM,15.6 nM,1710 nM
YXQGTFTSDXSQXLDXKAQXAFIEYLIAXGPSSGEPPPSGSEE (non-natural residues; lipidated Lys; C-terminal amide; synthetic construct; SITE 2: note = 2-Aminoisobutyric Acid; SITE 10: note = 3-(4-Pyridyl)-L-alanine; SITE 13: note = alpha-methyl-leucine; SITE 16: note = L-ornithine; SITE 17: note = Lysine is chemically modified through conjugation of the epsilon-amino group of the Lysine side chain with D-Glutami) [Example 1101],1.75 nM,–,0.0592 nM,–,4.72 nM,–,246 nM,6.31 nM,827 nM
